Reference: patent US11202837B2, “Biological materials and uses thereof” (Antikor Biopharma Limited, priority 2014, dated 2021)

Columns and labels:
[1] = Concentration reached and storage stability of purified conjugates in buffer; format: physicochemical; details: Storage buffer 20 mM Sodium Acetate pH5, 150 mM NaCl
[2] = Blood clearance in mice by direct ADC/scFv detection ELISA; format: in vivo, mouse; details: BALB/c mice
Method: An anti-Cemadotin MAb was raised (Example 33) and used to follow the ADC in mouse blood, to determine the pharmacokinetic properties. Normal BALB/c mice, 6-8 weeks old were maintained in filtered cages until used. A single batch of material (scFv-TCT, scFv (TCT)-Cemadotin, DAR=5 or 8) were prepared as above (Example 31) and 0.1 mg was injected into groups of 20 mice that were sacrificed at 4 time points (5 mice analysed per time point). Around 0.5 ml of whole blood was removed by cardiac puncture into EDTA-tubes and the serum collected by centrifugation. The serum was diluted appropriately into PBS and analysed by ELISA on HER2 coated micro-titre plates (Example 11D), detecting either by anti-T7 Tag (total antibody) or anti-cemadotin (total ADC). Non-injected reference samples were used to create a calibration curve for a direct read-out of ADC/ScFv blood concentration.

[3] = Blood clearance of 125-I radiolabelled scFv/conjugates in mice; format: in vivo, mouse; details: total protein level by 125-I labelling, 10 μg i.v., BALB/c mice
Method: An scFv, optimised for lysine conjugation was prepared as described in Example 27 or 28 and conjugated (as described in Example 31) to an NHS-derived Cemadotin drug (compound 2). The average DAR was 5 for scFv-TCT-Cem-1 and 4 for scFv-TCT-Cem-2 as determined by SDS-PAGE and IEF gels. This was radiolabelled with Iodine-125 using sodium-125-Iodide (MP Biologicals) and Iodogen™ tubes (Thermo) according to the manufacturer's instructions.
Ten micrograms of radiolabelled scFv or conjugate were injected intravenously into the tail vein of a group of 4 BALB/c female mice (Harlan UK) per time point. At each time point, blood was collected by cardiac puncture under terminal anaesthesia from 4 mice and the spleens were removed by dissection. The radioactivity from the blood and spleen tissues was measured using a gamma counter and compared to the injected dose, correcting for tissue weight. The percentage-injected dose per gram of tissue was plotted over time and pharmacokinetic parameters determined by fitting to a bi-exponential clearance model. […] This is described by the exponential decay, double, four-parameter equation y=ae^−bx+ce^−dx, where the distribution phase clearance rate (t1/2 alpha) can be determined by In 2/b, and the elimination clearance rate (t1/2 beta) can be determined by In 2/d.

HER2 = HER2 (Homo sapiens, UniProt P04626); test: Biacore SPR binding to immobilised HER2; details: immobilised HER2
Outline: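 HER2 amine-coupled on CM5 or CM3 chips, Biacore T200. Free antibody (typically 5-0.6 μg/ml) and conjugates (20-2.5 μg/ml) injected 160 s at 30 μl/min, 900 s dissociation (3600 s at highest concentration); regeneration with 8M MgCl2. Kinetics compared with unmodified scFv.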

[4] = Plasma pharmacokinetics in BALB/c mice (ELISA, total antibody and total ADC); format: in vivo, mouse; details: for Elimination half-life (hrs) Total Antibody: plasma ELISA
Method: Mice. Female BALB/c mice (BALB/cAnNCrl, Charles River) were eight weeks old with body weights ranging from 15.9 to 21.9 grams at the beginning of the study. The animals were fed ad libitum water (reverse osmosis, 1 ppm Cl) and NIH 31 Modified and Irradiated Lab Diet® consisting of 18.0% crude protein, 5.0% crude fat, and 5.0% crude fiber. The mice were housed on irradiated Enrich-o'cobs™ Laboratory Animal Bedding in static microisolators on a 12-hour light cycle at 20-22° C. (68-72° F.) and at 40-60% humidity. Charles River Discovery Services North Carolina (CR Discovery Services, who carried out this contracted R&D) specifically complies with the recommendations of the Guide for Care and Use of Laboratory Animals with respect to restraint, husbandry, surgical procedures, feed and fluid regulation, and veterinary care. The Animal Care and Use program at CR Discovery Services is accredited by the Association for Assessment and Accreditation of Laboratory Animal Care International, which assures compliance with accepted standards for the care and use of laboratory animals.
Therapeutic (test) Agents. All test agents were supplied as ready-to-dose dosing solutions. All dosing solutions were stored at 4° C. until dosed. All treatments were administered in a dosing volume scaled to the body weights of the individual animals to obtain the dosing concentration described in the treatment tables.
Treatment (mice). On Day 1 of the study, mice were divided into groups each consisting of eighteen mice (per test agent being evaluated), and dosing was initiated according to the treatment plan summarized in the treatment tables. All doses were administered intravenously (i.v.) by tail vein injection as described in the tables below.
Endpoint. The study endpoint occurred after the last sampling point, typically on Day 2 or 4, twenty-four or seventy-two hours post dose.
Sampling (mice). Blood (full blood volume) was collected from three animals per treatment group per timepoint. Samples were collected from all animals via terminal cardiac puncture under isoflurane anesthesia. Once collected, blood samples were collected into collection tubes containing lithium heparin or K2EDTA as anticoagulants and were processed for plasma at each timepoint. Each plasma sample was stored at −80° C. until used for analysis.
Quantification of test agents in plasma. An ELISA was carried out as described in Example 31 The detecting antibodies were (a) Anti-T7 tag to detect the scFv (total antibody), (b) Anti-Human Fab-specific to detect trastuzumab (total antibody), (c) Anti-MMAF (Concortis), Anti-MMAE (Concortis), anti-DM1
(Concortis) and anti-cemadotin (in-house mouse monoclonal antibody, Example 33 that also recognised P5C5 and AuristatinF), total ADC. The reference test agents were used to construct a calibration curve for which the plasma samples were compared to, in order to quantify the amount present. The concentration was plotted against time (average of three animals with standard error) and fitted to a 2-phase decay curve using GraphPad Prism to derive kinetic parameters.

[5] = 0.1 mg injected, serum, anti-T7 tag detection

B1: scFv (TCT): anti-HER2 scFv: Tev cleavage site, C6.5, T7 tag; SEQ ID NO: 2 (protein)
scFv: SGSGGSGQVQLVQSGAEVKKPGESLKISCKGSGYSFTSYWIAWVRQMPGKGLEYMGLIYPGDSDTKYSPSFQGQVTISVDKSVSTAYLQWSSLKPSDSAVYFCARHDVGYCSSSNCAAWPEYFQHWGQGTLVTVSSGGGGSGGGGSGGGGSQSVLTQPPSVSAAPGQKVTISCSGSSSNIGNNYVSWYQQLPGTAPKLLIYGHTNRPAGVPDRFSGSKSGTSASLAISGFRSEDEADYYCAAWDDSLSGWVFGGGTKLTVLMASMTGGQQMG
modifications: Amino Acid sequence of cleaved TCT
**Q.** With B1 as the molecule, how does the “stability after multiple freeze-thaw cycles” value [1] read?
**A.** stable

**Q.** And the “t1/2 (alpha), total antibody measured by anti-HER2 binding” value [2, 5]?
**A.** 0.4 h

**Q.** And the “t1/2 (beta), total antibody measured by anti-HER2 binding” value [2, 5]?
**A.** 5.25 h

**Q.** And the “blood clearance (in words)” value ([2]; measured directly)?
**A.** rapid blood clearance

**Q.** And the “t1/2 (alpha)” value [3]?
**A.** 0.4 h

**Q.** What about the “t1/2 (beta)” value [3] of the same molecule?
**A.** 4.3 h

**Q.** What about the association rate (HER2) of the same molecule?
**A.** 2.8e+06 M⁻¹ s⁻¹

**Q.** What about the dissociation rate (HER2) of the same molecule?
**A.** 0.00417 s⁻¹

**Q.** And the “Bioavailability (blood exposure, AUC, 24 hrs)” value ([4]; mice, 1 × 5 mg/kg, mean AUC in anti-payload and anti-protein detection, Table 59)?
**A.** 2.91 μghr/ml

**Q.** And the “Elimination half-life (hrs) Total Antibody” value ([4]; mice, 1 × 5 mg/kg, Table 55)?
**A.** 2.78 h

**Q.** And the “Elimination half-life (hrs) Total Antibody” value ([4]; mice, 1 × 5 mg/kg, Table 59)?
**A.** 2.78 h

**Q.** What about the “plasma clearance (in words)” value ([4]; single i.v. dose, female BALB/c mice (5 mg/kg MMAF-C5, P5C5; 2 mg/kg AF-C5, DM1)) of the same molecule?
**A.** clears rapidly
